Laboratory results as given in US8652790B2, “Conformational entropy in molecular recognition” (The Trustees of the University of Pennsylvania, priority 2007, dated 2014).
Like-named read-outs stand apart in the source and are kept apart here.

Legend:
[1] = molecular target: T1, calcium-saturated calmodulin (CaM) (Homo sapiens, UniProt P0DP23); conditions: cited from earlier work; for −TΔSbind: Binding entropy at 308 K (Table 3), values cited per Table 2 footnotes; for −TΔSbinding^total: ITC, 308 K, from Marlow & Wand or Frederick et al.
T1 construct: made in house

[2] = molecular target: T1, calcium-saturated calmodulin (CaM); test: Isothermal titration calorimetry of target domain peptides binding to calcium-saturated calmodulin; conditions: for −TΔSbind: Binding entropy at 308 K (Table 3); for −TΔSbinding^total: ITC, 308 K, pH 6.5, 100 mM KCl, 6 mM CaCl2, standard errors
Source text: NMR methods are herein used to determine the dynamic response of human CaM (GenBank AAD45181) to the binding of six peptides representing the calmodulin-binding domains of the smooth muscle myosin light chain kinase (smMLCK; AAA69964) (Lukas, T. J. et al. Calmodulin binding domains: characterization of a phosphorylation and calmodulin binding site from myosin light chain kinase. Biochemistry 25, 1458-1464 (1986)), the neuronal and endothelial nitric oxide synthases (nNOS and eNOS; AAB60654 and AAH63294, respectively) (Zhang, M. & Vogel, H. J. Characterization of the calmodulin-binding domain of rat cerebellar nitric oxide synthase. J. Biol. Chem. 269, 981-985 (1994)), the calmodulin kinase kinase (CaMKKα; EDM05132) (Tokumitsu, H. et al. Calcium/calmodulin-dependent protein kinase kinase: identification of regulatory domains. Biochemistry 36, 12823-12827 (1997)), the calmodulin kinase I (CaMKI; EAW63990) Goldberg, J., Nairn, A. C. & Kuriyan, J. Structural basis for the autoinhibition of calcium/calmodulin-dependent protein kinase I. Cell 84, 875-887 (1996)) and the phosphodiesterase (PDE; AAD40738 (SEQ ID NO: 8)) Goldberg, J., Nairn, A. C. & Kuriyan, J. Structural basis for the autoinhibition of calcium/calmodulin-dependent protein kinase I. Cell 84, 875-887 (1996)).
Four of the peptides have been found previously by isothermal titration calorimetry to have roughly the same affinity for calmodulin but with widely different thermodynamic parameters defining the free energy of association. Wintrode, P. L. & Privalov, P. L. Energetics of target peptide recognition by calmodulin: a calorimetric study. […] J. Biol. Chem. 276, 14083-14091 (2001). The present study repeats isothermal titration calorimetry measurements at a temperature (35° C.) that is more optimal for solution NMR spectroscopy, and characterizes the thermodynamics of binding of two additional domains (FIG. 1). Shown in FIG. 1 are the Gibbs free energy (ΔG), enthalpy (ΔH) and entropy (−TΔS) for the formation of the six calcium-saturated CaM-peptide complexes at 35° C., as determined by isothermal titration calorimetry.
Calmodulin and synthetic peptides and complexes were prepared as described previously (Kranz, J. K. et al. A direct test of the reductionist approach to structural studies of calmodulin activity: relevance of peptide models of target proteins. J. Biol. Chem. 277, 16351-16354 (2002)) in 20 mM imidazole (pH 6.5), 100 mM KCl, 6 mM CaCl2 and 0.02% (w/v) NaN3. NMR samples were slightly (˜10%) over-titrated with peptide to ensure full complex formation. […] Data were obtained with a VP-isothermal titration calorimeter (Microcal) and analysed with the Origin (v.5) software.

[3] = molecular target: T1, calcium-saturated calmodulin (CaM); test: Deuterium NMR relaxation of methyl-bearing side chains of target domains bound to CaM; conditions: residue L20 of the bound target domain
Source text: Using deuterium NMR relaxation methods, fast motion of the methyl-bearing side-chains of the target domains in the six CaM complexes were examined. Muhandiram, D. R. et al., Measurement of H-2 T-1 and T-1p relaxation-times in uniformly C-13-Labeled and fractionally H-2-labeled proteins in solution. J. Am. Chem. Soc. 117, 11536-11544 (1995).
All bound target domain methyl resonances are well resolved in ^13C-single quantum heteronuclear correlation (^13C-HSQC) NMR spectra and deuterium relaxation parameters could be measured with high precision. The 76 methyl order parameters from 52 residues of the target domains in the six complexes are heterogeneously distributed with O^2axis values ranging from 0.13 to 0.95 (FIG. 5). […]
O^2axis parameters were determined from T1 and T1p deuterium relaxation (Muhandiram, D. R. et al. Measurement of H-2 T-1 and T-1p relaxation-times in uniformly C-13-Labeled and fractionally H-2-labeled proteins in solution. J. Am. Chem. Soc. 117, 11536-11544 (1995)) measured at two magnetic fields. Rotational correlation times and O^2NH were determined from ^15N relaxation (Farrow, N. A. et al. Backbone dynamics of a free and a phosphopeptide-complexed Src homology-2 domain studied by ^15N NMR relaxation. Biochemistry 33, 5984-6003 (1994)) obtained at two magnetic fields. O^2CαCO parameters were determined by transverse cross-correlated relaxation. […]

Row | Substance | −TΔSbind [1] | −TΔSbinding^total [1] | −TΔSbind [2] | −TΔSbinding^total [2] | O^2axis [3]
1 | (COOH-FPNGFSRKRLMSKVLIVTTWSPLL [CaMKKα(p)] | +90.0 ± 1.0 kJ/mol | +90.0 ± 1.0 kJ/mol |  |  | 
2 | AKSKWKQAFNATAVVRHMRKLQ (listed as Homo sapiens) [CaMKI(p)] | +69.6 ± 0.9 kJ/mol | +69.6 ± 0.9 kJ/mol |  |  | 
3 | QTEKMWQRLKGILRSLVKQ [PDE(p)] |  |  | +33.9 ± 0.7 kJ/mol | +33.9 ± 0.7 kJ/mol | 0.165
4 | RKKTFKEVANAVKISASLMG [eNOS(p)] |  |  | +25.7 ± 0.8 kJ/mol | +25.7 ± 0.8 kJ/mol | 
